Key:
ASK2(1-172) = molecular target: T1, ASK2(1-172) (Arabidopsis thaliana, UniProt Q9FHW7); assay: Yeast two-hybrid assay with ASK2; format: cell-based; details: HF7c yeast
T1 construct: the plasmid pGAD424-ASK2(1-172)[4] was constructed by inserting a BamHI/PstI fragment of pGTE-ASK2(1-172) into pGAD424; expressed in transfected cells; host or cells: Saccharomyces cerevisiae HF7c
T1 sequence (Q9FHW7 1-171): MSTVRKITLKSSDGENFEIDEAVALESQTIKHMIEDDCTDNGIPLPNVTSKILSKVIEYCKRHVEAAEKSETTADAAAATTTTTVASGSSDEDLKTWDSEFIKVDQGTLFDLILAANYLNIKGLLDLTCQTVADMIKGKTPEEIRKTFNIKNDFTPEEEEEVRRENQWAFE
Text: As expression vectors of expressing GAL4 DNA binding domain (GAL4-BD) and ORE9 fusion protein, plasmids pGBT9-ORE9 (1-49) and pGBT9-ORE9 (50-693) were constructed. The plasmid pGBT9-ORE9 expresses a fragment of ORE9 containing N-terminal 1-49th amino acids corresponding to an F-box region of ORE9, and the plasmid pGBT9-ORE9 (50-693) expresses a fragment of ORE9 containing 50-693th amino acids from which the F-box region was removed.
First, the gene encoding the ORE9 (1-49) fragment was amplified by PCR using a primer represented by SEQ ID NO: 10 and SEQ ID NO: 11, and then inserted into BamHI and PstI restriction enzyme sites of pGBT9 (Clontech, USA) containing a 4-BD gene and a tryptophan auxotrophic selection marker gene (TRP1), thereby constructing the plasmid pGBT9-ORE9 (1-49). Similarly, the plasmid pGBT 9-ORE9 (50-693) was constructed, which expresses an ORE9 (50-693) fragment and a GAL4-BD fusion protein. In this case, oligonucletides represented by SEQ ID NO: 12 and SEQ ID NO: 13 were used as PCR primers to amplify the gene encoding the ORE9 (50-693) fragment. […]

GST-ASK1 fusion protein = molecular target: T2, GST-ASK1 fusion protein (Arabidopsis thaliana, UniProt Q39255); assay: In vitro binding assay with GST-ASK1 fusion protein; details: 35S-labeled in vitro translation product; glutathione beads; GST as negative control
T2 construct: made in house; host or cells: Escherichia coli BL21(DE3) pLysS
T2 sequence (Q39255 1-160): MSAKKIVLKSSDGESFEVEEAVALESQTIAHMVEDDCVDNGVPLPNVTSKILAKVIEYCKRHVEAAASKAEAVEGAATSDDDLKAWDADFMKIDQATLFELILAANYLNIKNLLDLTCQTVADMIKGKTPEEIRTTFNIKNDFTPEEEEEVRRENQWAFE
Text: In order to examine that ORE9 protein or derivatives thereof directly bind with ASK1, a GST-ASK1 fusion protein and a ^35S-labeled ORE9 protein produced by in vitro translation were subjected to in vitro binding assay. To obtain a glutathione S-transferase (GST) protein and a GST-ASK1 fusion protein, a vector pGEX (APBiotech, Co.) and a vector pGEX-ASK1 were constructed, which express the above proteins, respectively. Artificial sequences represented by SEQ ID NO: 14 and SEQ ID NO: 15 were used as PCR primers to amplify a gene encoding the ASK1 fragment. The resulting PCR product was digested with EcoRI and NcoI restriction enzymes, and inserted into the restriction enzyme sites of the pGEX vector. Escherichia coli BL21(DE3) pLysS was transformed with the resulting two vectors, and GST and GST-ASK1 fusion proteins were expressed. The GST and GST-ASK1 fusion proteins were purified by chromatography with glutathione-Sepharose 4B beads. The purified proteins was subjected to electrophoresis with SDS-polyacryamide gets, dyed with Coomassie blue, and measured for their amount. GST and GST-ASK1 fusion proteins of the same amount were added to glutathione beads, which had been previously washed with 10-fold volume of B buffer (20 mM […], pH 7.6, 150 mM sodium chloride, 10% glycerol, 0.5% NP-40, 1 mM DTT) three times. Then, the resulting proteins were adsorbed 4° C. for one hour using a rotating mixer. The provided beads were washed with 1 ml B buffer three times, and then stored in a state where the ratio of slurries relative to B buffer is 50%.
Meanwhile, a radioactivity-labeled ORE9 (1-693), the mutant type ore9 and ORE9 derivatives (1-327 and 50-693) were prepared using the in vitro transcription/translation system (Promega, USA) and [^35S]-methionine (DuPont NEN, USA). The proteins were quantitatively analyzed with SDS-PAGE and BAS radioanalytic imaging system (Japan). Then, the respective ^35S-labeled translation products of the same amount were mixed with 60 μl GST-adsorbed beads or GST-ASK1 fusion protein-absorbed beads, contained in 1 ml GB buffer (final concentration: 20 mM Tris-HCl, pH 7.5, 0.15% NP-40, 150 mM NaCl, 1 mM EDTA). The resulting beads were cultured in a rotating mixer at 4° C. for two hours, and then washed with 1 ml GB buffer four times. The washed beads were added with 30 μl of 2×SDS sample solutions, boiled for three minutes and then isolated with SDS-PAGE. The resulting gels were dried to dryness, and then exposed to X-ray film.

B1: ore9: mutant protein with early translation termination, 8 LRRs, SEQ ID NO: 3 (protein, listed as Arabidopsis thaliana)
chain: MASTTLSDLPDVILSTISSLVSDSRARNSLSLVSHKFLALERSTRSHLTIRGNARDLSLVPDCFRSISHLDLSFLSPWGHTLLASLPIDHQNLLALRLKFCFPFVESLNVYTRSPSSLELLLPQWPRIRHIKLLRWHQRASQIPTGGDFVPIFEHCGGFLESLDLSNFYHWTEDLPPVLLRYADVAARLTRLDLLTASFTEGYKSSEIVSITKSCPNLKTFRVACTFDPRYFEFVGDETLSAVATSSPKLTLLHMVDTASLANPRAIPGTEAGDSAVTAGTLIEVFSGLPNLEELVLDVGKDVKHSGVALEALNSKCKKLRVLKLG
**Q.** Which “binding with ASK2 in yeast two-hybrid assay” value (ASK2(1-172)) does the source give for B1 here?
**A.** The value was “didn't bind to each other”.

**Q.** And the “binding (co-precipitation) with GST-ASK1” value (GST-ASK1 fusion protein)?
**A.** The value was “co-precipitated with the GST-ASK1 fusion protein”.

Reference: US20040123344A1, “Novel gene encoding an f-box protein which regulates leaf longevity in arabidopsis thaliana and mutant gene thereof” (priority 2000, published 2004)
